{
  "source": "paper PMC12251713",
  "about": "“The Novel Transcription Factor BnaA01.KAN3 Is Involved in the Regulation of Anthocyanin Accumulation Under Phosphorus Starvation”",
  "biological_target": "T1, BnaA01.KAN3-His (Brassica napus cv. Zhongshuang 11, UniProt A0A816XN48 1-312)",
  "T1 sequence": "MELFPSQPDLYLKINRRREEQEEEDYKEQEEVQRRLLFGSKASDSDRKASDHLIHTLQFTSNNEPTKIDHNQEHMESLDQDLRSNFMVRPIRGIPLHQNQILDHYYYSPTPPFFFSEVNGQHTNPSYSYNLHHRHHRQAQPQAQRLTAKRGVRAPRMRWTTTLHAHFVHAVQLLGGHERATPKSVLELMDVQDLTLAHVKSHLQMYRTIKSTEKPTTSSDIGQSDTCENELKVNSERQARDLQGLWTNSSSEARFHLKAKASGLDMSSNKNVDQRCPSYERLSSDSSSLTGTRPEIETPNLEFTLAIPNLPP",
  "assay": "EMSA; LightShift Chemiluminescent EMSA Kit (Thermo 20148); buffer, salt, pH and temperature not stated",
  "conditions": "protein: recombinant; tags: His (pET28a); label: biotin 3' end; blunt",
  "data": [
    {"binder": "P1BS EMSA probe (dsDNA) DNA 1: AGACTTTGATTTGCATTATTGCATATACGTAGTAGTATAATGGTACTATC DNA 2: GATAGTACCATTATACTACTACGTATATGCAATAATGCAAATCAAAGTCT", "values": [
      {"measurement": "binding result", "value": "binds"}
    ]}
  ]
}
